# In publication PMC9674614 (Nature Communications, 2022):
# B1: vaccinia virus (strain Western Reserve) protein C16, full length, from E. coli (natural protein)
# chain: MDIYDDKGLQTIKLFNNEFDCIRNDIRELFKHVTDSDSIQLPMEDNSDIIENIRKILYRRLKNVECVDIDSTITFMKYDPNDDNKRTCSNWVPLTNNYMEYCLVIYLETPICGGKIKLYHPTGNIKSDKDIMFAKTLDFKSKKVLTGRKTIAVLDISVSYNRSMTTIHYNDDVDIDIHTDKNGKELCYCYITIDDHYLVDVETIGVIVNRSGKCLLVNNHLGIGIVKDKRISDSFGDVCMDTIFDFSEARELFSLTNDDNRNIAWDTDKLDDDTDIWTPVTEDDYKFLSRLVLYAKSQSDTVFDYYVLTGDTEPPTVFIFKVTRFYFNMPK
# notes: also called VACV-C16; FLC16
# Experiments:
# [1] = molecular target: vaccinia virus protein C4, full length, from baculovirus (vaccinia virus strain Western Reserve (WR)); experiment: SEC
# [2] = molecular target: C-terminal domain of vaccinia virus C16 (vaccinia virus strain Western Reserve (WR)) (UniProt P03296); experiment: SEC; C16-C alone
# SEC = molecular target: the molecule itself; experiment: SEC
# [3] = molecular target: the molecule itself; experiment: mass photometry; purified recombinant C16 alone
molecule,measurement,setting,value
"vaccinia virus protein C4, full length, from baculovirus (natural protein)",stoichiometry N,[1],2
C-terminal domain of vaccinia virus C16 (from UniProt P03296) (domain or fragment),stoichiometry N,[2],2
B1,stoichiometry N,SEC,2
same,stoichiometry N,[3],4
